Laboratory results taken from patent US20190016810A1, “METHODS FOR TREATING OR PREVENTING GRAFT-VERSUS-HOST DISEASE INVOLVING THE ADMINISTRATION OF ANTI-CCR5 RECEPTOR AGENTS” (CytoDyn Inc., priority 2017, published 2019).
“Also recorded” adds a separate entry of the source.

Key:
[1] = in vivo; cited from earlier work
CCR5 [2] = target: T1, CCR5 (Homo sapiens, UniProt P51681); conditions: activated human T cells, cited from earlier work
CCR5 [3] = target: T1, CCR5; design: host or cells: CHO-K1; conditions: CHO-K1 cells, cited from earlier work
xeno-GVHD in NSG mice = xeno-GVHD in NSG mice engrafted with human bone marrow cells: physical signs, weight, survival
Description: Animal experiments were conducted in accordance with the ethical standards and according to national and international guidelines and were approved by the Cleveland Clinic Institutional Animal Care and Use Committee. Male NSG mice, NOD.Cg-Prkdc^scidIl2ry^tm1wjl/SzJ (NOD-scid IL2ry^null, NSG) mice were obtained from the Jackson Laboratory (Bar Harbor, Me., USA), and athymic nude (nu/nu) (Taconic, Hudson, N.Y.) 6-8 wk old were used. Mice were housed in a barrier facility in cages with microisolator lids, autoclaved bedding, and HEPA-filtered air, and maintained under 12:12 light/dark cycles, controlled temperature and humidity. […] Conditioning regimen: Mice received 2.25 Gy total body irradiation via a 137Cs source (Shepherd, Los Angeles Calif.).
Following gamma irradiation (24 h later) mice were engrafted with human BM cells. De-identified human donor cells were obtained by back-flushing filter packs utilized by the Cleveland Clinic BMT program. Fresh (non-frozen) leukocytes were purified by Ficoll-Hypaque gradient centrifugation, washed in phosphate buffered saline (PBS), assessed for viability (ViCell, Beckman Coulter, Brea, Calif.). Human BM leukocytes were injected into the lateral tail vein (10^7 cells/mouse). Mice were monitored for clinical symptoms of GVHD (body posture, activity, fur and skin condition, weight loss) two times/wk. Peripheral blood was monitored weekly for engraftment utilizing saphenous vein venipuncture (50 mL) collected in K-EDTA tubes.
Mice were randomized into control and treatment groups by body weight. PRO 140 was administered on different doses (0.2-2.0 mg/kg) and schedules. The route was always intraperitoneal (i.p.). Control mice received normal human IgG (Sigma Aldrich, St. Louis, Mo.).
Starting with the human dose of PRO 140=5.8 mg/kg×12 (man-to-mouse conversion factor)=69.6 mg/kg mouse dose; average mouse=0.025 kg, therefore dose is 69.6 mg/kg×0.025 kg=1.74 mg (mouse single dose). This was rounded up to 2.0 mg and designated as the “high dose”. A “low dose” (0.2 mg) was also tested. IgG derived from human serum (>95% SDS-PAGE, Sigma, I4506) was used as a non-specific control antibody.
Statistical analysis was performed using GraphPad Prism (GraphPad Software, La Jolla, Calif.). All measures of variance were depicted as standard error of the mean (SEM). Survival was analyzed by the Kaplan-Meier method and Mantel-Cox log-rank test. For other data, two-sided unpaired Students t-test was used.

HIV-1 = conditions: at concentrations that do not affect CCR5 chemokine receptor activity; in vitro and hu-PBL-SCID mouse model; cited from earlier work
CCR5 [4] = target: T1, CCR5; assay: Tyrosine kinase phosphorylation downstream of CCR5 receptor signaling in T cells in vitro; assay type: cell-based; design: tyrosine kinase phosphorylation downstream of CCR5 receptor signaling in T cells in vitro; endogenous in cells; host or cells: T cells
Excerpt: Thus, it is shown that PRO 140's activity as a CCL5 competitive binding inhibitor has a mixed impact on CCL5's ability to participate in downstream activity conventionally associated with the CCR5/CCL5 axis. Further elucidation of the role of PRO 140 and its immunomodulatory effects is the subject of continued investigation.

CCR5 [5] = target: T1, CCR5; conditions: CD4+ T cells, cited from earlier work
[6] = system: engrafted human cells (CD45+, CD3+); assay: Flow cytometry analysis of engrafted human cells in peripheral blood, spleen and bone marrow of NSG mice; assay type: in vivo; conditions: for CD45+ cells in peripheral blood at the time of euthanasia: control 64%
Description: Peripheral blood (PB), bone marrow (BM), and spleen (SPL) samples were analyzed by flow cytometry. Splenocytes were passed through a […] strainer. Erythrocytes were lysed with ammonium chloride. Cells were washed twice with PBS and stained for 15 min at 4 deg C. in PBS/0.5 mM EDTA/0.5% BSA with the following antibodies: anti-human-CD3-FITC (clone UCHT1, IM1281U), anti-human-CD45-PC7 (clone J.33, 1M3548U), Beckman/Coulter. Samples were analyzed on a Cytomics FC500 Flow Analyzer (Beckman/Coulter).

T1 sequence (P51681 whole entry): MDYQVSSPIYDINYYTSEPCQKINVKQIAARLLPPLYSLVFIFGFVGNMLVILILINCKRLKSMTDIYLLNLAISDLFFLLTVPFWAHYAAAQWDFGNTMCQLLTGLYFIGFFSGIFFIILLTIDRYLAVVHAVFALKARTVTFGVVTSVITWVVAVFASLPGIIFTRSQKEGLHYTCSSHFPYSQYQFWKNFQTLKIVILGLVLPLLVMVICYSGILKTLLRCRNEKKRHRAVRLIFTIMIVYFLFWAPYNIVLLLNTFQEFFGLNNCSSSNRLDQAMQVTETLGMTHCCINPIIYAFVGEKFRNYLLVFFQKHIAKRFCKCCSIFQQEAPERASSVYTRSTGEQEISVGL

Cc1nnc(C(C)C)n1C1C[C@H]2CC[C@@H](C1)N2CC[C@H](NC(=O)C1CCC(F)(F)CC1)c1ccccc1 (stereo in doubt) [maraviroc]
incidence of gastrointestinal and liver GVHD [1]: dramatically decreases the incidence of gastrointestinal and liver GVHD | production of TNF-α and IFN-γ (CCR5 [2]; high doses): tends to decrease production of TNF-α and IFN-γ | CCR5 and CCR2 internalization induced by CCL5 and CCL2 (CCR5 [2]): can block CCR5 and CCR2 internalization processes | T cell chemotactic activities toward cognate ligands (CCR5 [2]): inhibit T cell chemotactic activities

B1: PRO 140: humanized monoclonal antibody to CCR5, humanized version of the murine mAb PA14; competitive inhibitor of CCL5 binding to CCR5 receptor (antibody, chains of the INN, looked up, V domains shown)
VH: EVQLVESGGGLVKPGGSLRLSCAASGYTFSNYWIGWVRQAPGKGLEWIGDIYPGGNYIRNNEKFKDKTTLSADTSKNTAYLQMNSLKTEDTAVYYCGSSFGSNYVFAWFTYWGQGTLVTVSS
VL: DIVMTQSPLSLPVTPGEPASISCRSSQRLLSSYGHTYLHWYLQKPGQSPQLLIYEVSNRFSGVPDRFSGSGSGTDFTLKISRVEAEDVGVYYCSQSTHVPLTFGQGTKVEIK
effect on chemotaxis, alone (CCR5 [3]; PRO 140 alone): does not affect chemotaxis | effect on CCL5-induced chemotaxis (CCR5 [3]; with CCL5): does reduce CCL5-induced chemotaxis | survival (Kaplan-Meier), low dose (xeno-GVHD in NSG mice; PRO 140 0.2 mg i.p., BM from donor, control animals all dead by 31 days): ≤ 54 days | start of physical signs of GvHD and weight loss, low dose (xeno-GVHD in NSG mice; PRO 140 0.2 mg i.p., control mice starting at day 20): 25 to 28 days | mean weight at about 20 days (xeno-GVHD in NSG mice; PRO 140 2.0 mg i.p. twice/wk started day 1, about 20 days after engraftment): about 23.0 gm | mean weight at about 52 days (xeno-GVHD in NSG mice; PRO 140 2.0 mg i.p. twice/wk started day 1, about 52 days after engraftment): about 23.6 gm | survival (Kaplan-Meier), high dose (xeno-GVHD in NSG mice; PRO 140 2.0 mg i.p. twice/wk started day 1, sacrificed at 70 days, control IgG animals all dead by 56 days): ≥ 70 days | physical signs / symptoms of GVHD (xeno-GVHD in NSG mice; high dose (2.0 mg i.p. twice/wk), 70-day study period): did not exhibit any symptoms associated with GVHD; also recorded: no physical signs of GVHD | weight course (xeno-GVHD in NSG mice; high dose (2.0 mg i.p. twice/wk), control mice lost weight): gained weight; also recorded: continued to gain weight | survival (xeno-GVHD in NSG mice; past 70 days, xeno-transplant animal model, NSG mice upon HSC engraftment): 100% | HIV-1 entry and replication (HIV-1): potently inhibits HIV-1 entry and replication | effect on tyrosine kinase phosphorylation, alone (CCR5 [4]; PRO 140 alone): does not affect tyrosine kinase phosphorylation | effect on phosphorylation of tyrosine kinases by CCL5 (CCR5 [4]; with CCL5): does not inhibit phosphorylation of such kinases by CCL5 | effect on cAMP levels, added alone (CCR5 [5]; PRO 140 alone): does not affect cAMP levels | effect on cAMP levels, administered with CCL5 (CCR5 [5]; with CCL5): does diminish the effect of CCL5 on cAMP levels | effect on engraftment ([6]; bone marrow at the time of euthanasia): did not inhibit engraftment; also recorded: did not negatively affect engraftment | CD45+ cells in bone marrow versus control at the time of euthanasia ([6]; compared with control IgG mice): no differences | CD45+ cells in spleen at the time of euthanasia ([6]; control 58-59%, p<0.05): 41% | CD45+ cells in peripheral blood at the time of euthanasia ([6]; p<0.05): 46% | CD45+ cells in peripheral blood at the time of euthanasia ([6]; p<0.05, listed as Pro 140): 45% | mouse hematopoietic cells (mouse CD45) in bone marrow ([6]; high dose cohort, Day 75): 28% | mouse hematopoietic cells (mouse CD45) in peripheral blood ([6]; high dose cohort, Day 75): 14.9% | mature T-cells (CD45/CD3) in bone marrow at 54 days ([6]; high dose cohort, FIG. 6 BM panel E2 quadrant, control 40.2%): 26.4% | mature T-cells (CD45/CD3) in peripheral blood at 54 days ([6]; high dose cohort, FIG. 6 PB panel E2 quadrant, control 63.2%): 49.8% | human CD45+ cells in peripheral blood versus control at day 50 ([6]; high dose, compared with control IgG mice): significantly lower | human CD45+ cells in peripheral circulation at 50 days ([6]; high dose, control 62%, p=0.034): 43% | delay until the same percentage of CD45+ engraftment as control ([6]; low dose (0.2 mg), peripheral blood, P<0.01): approximately 20 days | divergence in engraftment from control, start ([6]; low dose cohort (0.2 mg)): 15 days
